Patent US20040171074A1, “Structures of substrate binding pockets of SCF complexes” (MOUNT SINAI HOSPITAL, priority 2002, published 2004)
Where a chain is given by its changes, count along the chain named. Names and notes keep the numbering of the source. Non-standard residues stand in square brackets, D forms with d. pT = C[C@@H](OP(=O)(O)O)[C@H](N)C(=O)O

Assays:
[1] = molecular target: T1, Cdc4 (Saccharomyces cerevisiae, UniProt P07834); conditions: cyclin E derived nine-residue CPD phosphopeptide binding Cdc4 (Nash et al., 2001); cited from earlier work
T1 sequence (P07834 1-779): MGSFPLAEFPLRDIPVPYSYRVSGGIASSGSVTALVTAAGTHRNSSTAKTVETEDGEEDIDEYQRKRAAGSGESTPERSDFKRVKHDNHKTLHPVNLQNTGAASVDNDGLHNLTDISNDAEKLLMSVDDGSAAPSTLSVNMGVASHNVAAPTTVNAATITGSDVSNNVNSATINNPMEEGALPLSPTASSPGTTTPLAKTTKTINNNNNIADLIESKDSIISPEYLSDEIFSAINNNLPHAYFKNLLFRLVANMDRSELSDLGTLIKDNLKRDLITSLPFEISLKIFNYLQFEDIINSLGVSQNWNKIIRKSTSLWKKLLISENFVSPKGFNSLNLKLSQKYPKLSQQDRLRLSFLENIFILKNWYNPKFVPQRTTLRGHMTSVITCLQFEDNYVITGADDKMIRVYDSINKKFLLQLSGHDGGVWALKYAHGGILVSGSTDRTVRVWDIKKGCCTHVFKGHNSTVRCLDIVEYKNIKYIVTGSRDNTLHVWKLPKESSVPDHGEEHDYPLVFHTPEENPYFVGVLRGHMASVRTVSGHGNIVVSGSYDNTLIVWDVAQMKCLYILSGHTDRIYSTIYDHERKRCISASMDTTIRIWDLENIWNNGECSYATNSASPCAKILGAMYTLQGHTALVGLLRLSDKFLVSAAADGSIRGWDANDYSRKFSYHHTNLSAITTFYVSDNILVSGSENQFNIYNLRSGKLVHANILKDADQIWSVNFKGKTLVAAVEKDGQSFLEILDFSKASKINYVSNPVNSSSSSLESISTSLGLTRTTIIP

[2] = molecular target: T2, Skp1 (Saccharomyces cerevisiae, UniProt P52286); assay: Skp1 binding in vitro (pull down); set-up: species or system yeast
T2 construct: GST (N); made in house; host or cells: bacteria
T2 sequence (P52286 2-194 limits assumed): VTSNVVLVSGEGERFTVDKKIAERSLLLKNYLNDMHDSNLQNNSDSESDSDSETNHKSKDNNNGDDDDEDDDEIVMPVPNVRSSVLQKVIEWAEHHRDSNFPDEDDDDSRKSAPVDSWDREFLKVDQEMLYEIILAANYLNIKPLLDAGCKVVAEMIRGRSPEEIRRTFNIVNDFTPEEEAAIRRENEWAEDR
Description: In order to probe the functional importance of amino acid residues on the highly conserved peptide binding surface, a panel of Cdc4 mutants (both single and double mutant) were generated and tested each for its ability to bind phospho Sic1 and Skp1 in vitro using a pull down assay and for its ability to substitute for wt-cdc4 in vivo using a cell viability assay. Of 12 single site mutants tested, only Arg 467. Arg485Ala Arg534Ala, and Trp 426 abolished both cell viability in vivo and phosphoSic1 binding in vitro. Together, these residues compose most of the interaction surface with the pThr, Pro CPD core. […] Presumably in the context of the full SCF complex in vivo this mutant is sufficiently well behaved to bind phospho Sic1.

[3] = system: cdc4Δ strain; assay: plasmid shuffle assay: complementation of a cdc4Δ strain by CDC4 alleles; type: cell-based, yeast; conditions: viability of cdc4Δ strain on 5-FOA, 2 days at 30° C.
In short: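 Mutant CDC4 alleles on TRP1 CEN plasmids were shuffled into cdc4Δ strain MT 1259 carrying wild-type CDC4 on a URA3 plasmid, with growth on 5-FOA for 2 days at 30° C. Survivors were transformed with GAL1-SIC1 or phosphosite mutants and plated on glucose or galactose, 2 days at 30° C.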

[4] = system: phospho-Sic1; assay: P-Sic1 pull down: in vitro capture of phospho-Sic1 on immobilized wild type or mutant Cdc4-GST-Skp1, anti-Sic1 immunoblot; type: binding, yeast; conditions: Sic1 phosphorylated with Cln2-Cdc28, captured onto GST-Skp1/Cdc4 resin, anti-Sic1 detection
In short: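 Bacterial His6-Sic1 phosphorylated by Cln2-Cdc28 from Sf9 cells; 0.5 μg phospho-Sic1 incubated with 1 μg immobilized wild-type or mutant Cdc4(263-744)-GST-Skp1 at 4° C for 1 h, washed four times. Bound Sic1 detected by anti-Sic1 immunoblot after SDS-PAGE.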

[5] = system: cdc4Δ strain overexpressing SIC1; assay: sensitivity to SIC1 dosage: GAL1-SIC1 overexpression in strains bearing CDC4 alleles; type: cell-based, yeast; conditions: galactose, 2 days at 30° C.
Description: Mutational analysis of the CPD binding surface. Mutants were tested in vitro by ability to bind phosphorylated Sic1 and then captured onto GST-Skp1/Cdc4 resin and detected with anti-sic1 antibody. Mutants were tested in vivo by ability to degrade GAL1-SIC1 or various phosphorylation mutants. Sites are as follows: 3=Thr 33, Thr 45, Ser 76; 4=Thr 5, Thr 33, Thr 45, Ser 76; 5=Thr 2, Thr 5, Thr 33, Thr 45, Ser 76; 6=Thr 2, Thr 5, Thr 33, Thr 45, Ser 69, Ser 76; 7=Thr 2, Thr 5, Thr 33, Thr 45, Ser 69, Ser 76, Ser 80. GAL1-SIC1 plasmids were transformed into a cdc4Δ strain containing a copy of CDC4 on a TRP1 ARS CEN plasmid. Strains were incubated for 2 days at 30° C.
All mutants on a TRP1 ARS CEN plasmid were transformed into a cdc4Δ strain (MT 1259) containing a wildtype copy of CDC4 on a URA3 ARS CEN plasmid. Cells were plated on either Trp^−Ura^− or 5-FOA medium for 2 days at 30° C. Viable cells on 5-FOA were grown in Trp medium and transformed with either wild type GAL1-SIC1, GAL1-SIC T45A, or GAL1-SIC T33V on a LEU2 ARS CEN pasmid. Cells were then plated on Leu- Trp-plates containing either glucose or galactose and incubated for 2 days at 30° C.
Since the cell viability assay nay be masking subtle functional roles for the conserved Cdc4 residues, function was assayed in vivo under more stringent conditions in which Sic1 wt or the stabilized mutants, Sic1 (T33V) or Sic1(T45A) are over-expressed under a galactose promoter. This should amplify defects in cdc4 function. Under these conditions, Trp 717, Tyr 548 and the double mutant K404D/R443D are lethal showing that these residues are in fact important for functions
Cdc4 functional assays. CDC4 mutant alleles were assessed for complementation of a cdc4A strain in a plasmid shuffle assay (Nash et al., 2001). Sensitivity to SIC1 dosage was determined by transformation with pMT837 (GAL1-SIC1) or pMT767 (GAL1-SIC1^T33V) and plating on glucose medium or galactose medium. For in vitro capture of phospho-Sic1 by Cdc4, 0.5 μg of bacterially-expressed ^HIS6Sic1 was phosphorylated with immobilized Cln2-Cdc28 kinase from baculovirus-infected Sf9 cells and then incubated with 1 μg of immobilized wild type or mutant Cdc4^263-744-GST-Skp1, at 4° C. for 1 hr, washed 4 times and visualized by anti-Sic1 immunoblot. For isoelectric focusing (IEF)-2D gel analyses, an evenly distributed pool of phospho-Sic1 isoforms was generated by combining different time points in a Sic1 phosphorylation reaction. 2.5 μg of the phospho-Sic1 pool was bound to 5 μg of immobilized wild type or mutant Cdc4^1-744-GST-Skp1. Captured isoforms were separated by denaturing IEF-2D gel electrophoresis using pH3-10NL Immobiline gel strips (Amersham) and visualized by anti-Sic1 immunoblot. Alternatively, the pool of phospho-Sic1 isoforms was incubated in solution with a ubiquitination reaction mix containing ATP, ubiquitin, yeast E1, Cdc34 and either wild type or mutant SCF^Cdc4 complex, composed of a 1:1 ratio of bacterial Cdc4-GST-Skp1 and insect cell-produced Cdc53-Rbx1, at 30° C. for 1 h as previously described (Nash et al., 2001).

[6] = system: phospho-Sic1 isoforms; assay: IEF-2D gel analysis of Sic1 phospho-isoforms captured by wild type or mutant Cdc4-GST-Skp1; type: binding, yeast; conditions: pool of Sic1 phosphorylated on 1 to 9 sites
Description: Bacterially expressed His6-Sic1 was phosphorylated with Cln2-Cdc28 kinase purified from baculovirus infected Sf9 cells as described before (Nature paper). 1 ug of WT or mutant Cdc4-GST-Skp1, immoblized on GSH-Sepharose resin, was incubated with 0.5 ug phospho-Sic1 at 4 C for 1 h and washed 4 times. Captured complexes were resolved on SDS-PAGE and Sic1 visualized by anti-Sic1 Western blotting and ECL. For IEF-2D analysis, several Sic1 phosphorylation reactions were carried out for different time periods to obtain a spectrum of Sic1 that were phosphorylated at different numbers of its nine CDK sites. This pool of phospho-Sic1 (2.5 ug) was incubated with 5 μg of WT or mutant Cdc4-GST-Skp1 as described above. Different phosphorylation states of Sic1 were separated by denaturing isoelectric focusing (IEF)-2D gel electrophoresis and visualized by anti-Sic1 Western blotting and ECL. IEF was performed using pH 3-10NL Immobiline gel strips and IPGphore IEF system (Amersham pharmacia).
Cdc4 functional assays. CDC4 mutant alleles were assessed for complementation of a cdc4A strain in a plasmid shuffle assay (Nash et al., 2001). Sensitivity to SIC1 dosage was determined by transformation with pMT837 (GAL1-SIC1) or pMT767 (GAL1-SIC1^T33V) and plating on glucose medium or galactose medium. […]

Ac-GLL[pT]PPQSG-NH2 [CPD phosphopeptide]
Kd [1]: 1000 nM

B1: W426A: mutant cdc4 polypeptide (protein)
chain: T1 sequence (P07834 1-779) with W426A
Skp1 binding [2]: fully competent
shuffle [3]: dead
shuffle ([3]; listed as Trp 426): abolished
shuffle ([3]; listed as Trp426Ala): unable
P-Sic1 pull down [4]: no bind
P-Sic1 pull down ([4]; listed as Trp 426): abolished
P-Sic1 pull down ([4]; listed as Trp426Ala): unable to bind

B2: W717N/V384N: double mutant cdc4 polypeptide compromised for selection at P−1 (protein)
chain: T1 sequence (P07834 1-779) with V384N, W717N
gal Sic1T33V ([5]; GAL1-SIC1 T33V (partially stabilized Sic1)): dead
gal Sic1T45A ([5]; GAL1-SIC1 T45A): dead
gal Sic1 wt ([5]; GAL1-SIC1 wild type): alive
shuffle [3]: alive
shuffle ([3]; listed as V384N/W717N): viable
P-Sic1 pull down [4]: bind
P-Sic1 pull down ([4]; listed as V384N/W717N): fully competent
Sic1 phospho-isoforms captured (number of phosphorylated sites) [6]: as few as four
